Results published in the supplement of paper PMC10567573.

B1: MIA2 (parent)
chain: NSISSDKEATVPCTEILTEKKDTI

Variants of: B1
Assay: protein stability index of a GFP-peptide fusion (GPS, HEK-293T) (PSI 1-6); higher = more stable
Conditions: c terminus: a fixed tail appended
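Note: lentivirally expressed fusions sorted by FACS into six bins by GFP to DsRed ratio, PSI derived from sequencing read proportions per bin multiplied by bin number.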

First: A9V
Second: A9Y
The protein stability index of the first is higher: 5.17 for the first, 5.05 for the second.

Compared with A9E, A9S is higher in protein stability index: 5.28 for the first, 5.31 for the second.

Compared with A9P, A9M is higher in protein stability index: 5.38 for the first, 5.59 for the second.

First: A9C
Second: A9W
The protein stability index of the first is lower: 4.71 for the first, 4.79 for the second.

Compared with A9I, T14E is higher in protein stability index: 5.3 for the first, 5.49 for the second.

First: T14W
Second: T14G
The protein stability index of the first is lower: 4.74 for the first, 5.09 for the second.

T14V and T14N are the same in protein stability index: 5.42 for the first, 5.42 for the second.

Going from T14Y to N1I, the protein stability index falls from 5.1 to 4.79.

First: N1P
Second: N1T
The protein stability index of the first is higher: 5.68 for the first, 5.05 for the second.

Compared with N1F, N1Q is higher in protein stability index: 4.77 for the first, 5.44 for the second.

Compared with N1C, N1D is lower in protein stability index: 5.27 for the first, 5.25 for the second.

Going from T10S to T10Y, the protein stability index falls from 5.72 to 4.63.

Going from T10G to T10M, the protein stability index falls from 5.4 to 5.17.

First: T10C
Second: T10I
The protein stability index of the first is higher: 5.5 for the first, 5.2 for the second.

Compared with T10K, D22T is lower in protein stability index: 5.24 for the first, 5.04 for the second.

Compared with D22G, D22Y is lower in protein stability index: 5.33 for the first, 4.53 for the second.

Going from D22W to D22M, the protein stability index rises from 3.49 to 4.62.

First: D22L
Second: D22F
The protein stability index of the first is higher: 4.57 for the first, 4.5 for the second.

Going from I3D to I3R, the protein stability index rises from 5.44 to 5.7.

Compared with I3M, I3G is higher in protein stability index: 5.45 for the first, 5.54 for the second.

Going from I3W to I3T, the protein stability index falls from 5.52 to 4.68.

First: I3V
Second: I3L
The protein stability index of the first is higher: 5.45 for the first, 5.02 for the second.

Compared with K20I, K20H is higher in protein stability index: 5.15 for the first, 5.42 for the second.

First: K20N
Second: K20A
The protein stability index of the first is higher: 5.53 for the first, 5.34 for the second.

Going from K20F to K20T, the protein stability index rises from 4.64 to 5.48.

First: K20E
Second: K20D
The protein stability index of the first is lower: 5.53 for the first, 5.68 for the second.

Going from K20V to K7W, the protein stability index falls from 5.31 to 5.05.

Compared with K7I, K7Q is lower in protein stability index: 5.27 for the first, 5.25 for the second.

Going from K7M to K7G, the protein stability index rises from 4.95 to 5.8.

First: K7L
Second: K7N
The protein stability index of the first is higher: 5.52 for the first, 5.51 for the second.

Going from K7Y to K7S, the protein stability index rises from 5.17 to 5.5.

Compared with D6G, D6E is higher in protein stability index: 5.28 for the first, 5.63 for the second.

Going from D6L to D6R, the protein stability index falls from 5.06 to 4.9.

First: D6N
Second: D6H
The protein stability index of the first is higher: 5.42 for the first, 4.89 for the second.

Compared with D6Y, D6M is higher in protein stability index: 4.71 for the first, 5 for the second.

First: D6I
Second: C13W
The protein stability index of the first is lower: 4.98 for the first, 5.06 for the second.

Going from C13T to C13I, the protein stability index falls from 5.66 to 5.54.

Going from C13N to C13P, the protein stability index falls from 5.7 to 5.35.

First: C13V
Second: C13R
The protein stability index of the first is higher: 5.58 for the first, 4.99 for the second.

First: C13F
Second: C13H
The protein stability index of the first is higher: 5.28 for the first, 5.15 for the second.

Compared with I16F, I16T is higher in protein stability index: 5.19 for the first, 5.63 for the second.

Compared with I16N, I16V is lower in protein stability index: 5.47 for the first, 5.45 for the second.

Going from I16Q to I16R, the protein stability index falls from 5.65 to 5.57.

Compared with V11D, V11S is lower in protein stability index: 5.72 for the first, 5.22 for the second.

Compared with V11N, V11W is lower in protein stability index: 5.49 for the first, 5.22 for the second.

Compared with V11H, V11F is higher in protein stability index: 4.62 for the first, 5.43 for the second.

Going from V11I to S5W, the protein stability index falls from 5.28 to 5.17.

Compared with S5M, S5A is higher in protein stability index: 5.23 for the first, 5.33 for the second.

Going from S5F to S5C, the protein stability index rises from 4.94 to 5.25.

Compared with S5K, S5G is lower in protein stability index: 5.83 for the first, 5.42 for the second.

Going from S5T to S5L, the protein stability index rises from 5.39 to 5.42.

Compared with S5I, E19Q is higher in protein stability index: 5.17 for the first, 5.22 for the second.

Going from E19K to E19L, the protein stability index falls from 4.93 to 4.43.

First: E19D
Second: E19F
The protein stability index of the first is higher: 5.46 for the first, 4.62 for the second.

First: E19C
Second: E19T
The protein stability index of the first is higher: 5.21 for the first, 5.17 for the second.

Compared with I24P, I24W is lower in protein stability index: 5.66 for the first, 5.32 for the second.

Going from I24Y to I24T, the protein stability index rises from 5.36 to 5.67.

Going from I24K to K21Y, the protein stability index falls from 5.35 to 4.84.

Going from K21C to K21L, the protein stability index rises from 5.27 to 5.42.

Compared with K21I, K21N is higher in protein stability index: 5.14 for the first, 5.48 for the second.

Going from K21D to P12C, the protein stability index falls from 5.72 to 5.28.

Going from P12R to P12F, the protein stability index falls from 5.38 to 4.92.

First: P12N
Second: P12Q
The protein stability index of the first is higher: 5.51 for the first, 5.4 for the second.

First: P12Y
Second: P12S
The protein stability index of the first is lower: 4.34 for the first, 5.63 for the second.

First: T23E
Second: T23R
The protein stability index of the first is higher: 5.61 for the first, 5.13 for the second.

Compared with T23K, T23H is lower in protein stability index: 5.54 for the first, 5.3 for the second.

Compared with L17W, L17H is higher in protein stability index: 4.52 for the first, 5.21 for the second.

First: L17M
Second: L17V
The protein stability index of the first is higher: 5.28 for the first, 5.18 for the second.

Going from L17E to L17T, the protein stability index falls from 5.78 to 5.71.

Compared with L17N, L17A is higher in protein stability index: 5.4 for the first, 5.8 for the second.

Going from L17P to E15D, the protein stability index falls from 5.62 to 5.45.

First: E15R
Second: E15I
The protein stability index of the first is higher: 4.9 for the first, 4.25 for the second.

Compared with E15N, E15S is higher in protein stability index: 5.23 for the first, 5.34 for the second.

First: T18G
Second: T18V
The protein stability index of the first is higher: 5.43 for the first, 5.12 for the second.

Compared with T18H, S4W is lower in protein stability index: 5.35 for the first, 5.11 for the second.

First: S4G
Second: S4H
The protein stability index of the first is lower: 4.98 for the first, 5.5 for the second.

Going from S4N to S4L, the protein stability index rises from 5.18 to 5.21.

Going from S4D to S4Y, the protein stability index falls from 5.54 to 5.44.

First: S2D
Second: S2P
The protein stability index of the first is higher: 5.59 for the first, 5.31 for the second.

First: S2I
Second: S2F
The protein stability index of the first is lower: 5.32 for the first, 5.37 for the second.

First: E8G
Second: E8C
The protein stability index of the first is higher: 5.37 for the first, 5.27 for the second.

First: E8Q
Second: E8T
The protein stability index of the first is higher: 5.52 for the first, 5.17 for the second.

Going from E8A to E8H, the protein stability index falls from 5.07 to 4.91.

For E8W, the protein stability index was 4.73.
